Measured values from patent US20240124539A1, “CROSSLINKED HELIX DIMER MIMICS OF SOS AND METHODS OF USING SAME” (NEW YORK UNIVERSITY, priority 2020, published 2024).
Values belong to the binder of their own block, whether it stands above or below them. Positions of bridges follow the written chain, without caps; N, C: chain ends. Non-standard residues stand in square brackets, D forms with d. Chains are numbered I, II in the order given. No end group written: not given here. *: point of attachment. dibenzylether crosslinker = scaffold alkylating both cysteine thiols (drawn in Scheme 1 and; FITC = O=C1OC2(c3ccc(O)cc3Oc3cc(O)ccc32)c2ccc(NC(=S)*)cc21; hArg = N=C(N)NCCCC[C@H](N)C(=O)O; βAla = NCCC(=O)O

Assays:
[1] = target: KRAS (Homo sapiens), P01116; test: photoaffinity crosslinking in H358 cells, TMT MS proteomics; vs control probe CP-266
[2] = target: KRAS (Homo sapiens), P01116; test: photoaffinity crosslinking in H358 cells, TMT MS proteomics
[3] = target: G12D mutant His6-tagged H-Ras (1-166) pre-loaded with GDP, P01112; test: direct fluorescence polarization (FP); fluorescein-labelled CHD titrated with GDP-loaded His6-H-Ras G12D
[4] = target: T1, wild-type His6-tagged H-Ras (1-166) pre-loaded with GDP, P01112; test: fluorescence polarization, fluorescein-labelled CHD (15 nM), His6-H-Ras-GDP titrated
[5] = target: T1, wild-type His6-tagged H-Ras (1-166) …; test: direct fluorescence polarization (FP); fluorescein-labelled CHD titrated with GDP-loaded His6-H-Ras
[6] = target: T2, G12V mutant His6-tagged H-Ras (1-166) pre-loaded with GDP, P01112; test: direct fluorescence polarization (FP); fluorescein-labelled CHD titrated with GDP-loaded His6-H-Ras G12V
[7] = target: G12C mutant His6-tagged H-Ras (1-166) pre-loaded with GDP, P01112; test: direct fluorescence polarization (FP); fluorescein-labelled CHD titrated with GDP-loaded His6-H-Ras G12C
[8] = target: T2, G12V mutant His6-tagged H-Ras (1-166) …; test: microscale thermophoresis (column MST); AFDye 647-labelled G12V H-Ras-GDP with serial dilutions of the unlabelled CHD
[9] = target: K-Ras (endogenous, H358 cells) (human), P01116; test: cell-based or functional assay
[10] = target: T3, fluorescently-labeled wild-type H-Ras-GDP (MST), P01112; test: microscale thermophoresis, dye-labelled H-Ras-GDP (5-10 nM), CHD titrated
[11] = target: T3, fluorescently-labeled wild-type …; test: microscale thermophoresis; AFDye 647-labelled wild-type H-Ras-GDP with serial dilutions of the CHD
[12] = target: T1, wild-type His6-tagged H-Ras (1-166) …; test: direct fluorescence polarization; fluorescein-labelled CHD titrated with GDP-loaded WT H-Ras

B1: DZ2-CHD^Sos-5 (designed binder)
chain 1: WIGRLCTEIKRLRNGN
chain 2: LAWRLRELERELARLC
modifications: not checked
Fold [1]: 6.63 fold
log2(fold) [1]: 2.73
Average Abundance [2]: 825

B3: CHD^Sos-5 (designed binder)
chain 1: WIGRLCTEI[hArg]RLRNGN
chain 2: Ac-LAWRLRELERELARLC-NH2
modifications: linker I:6-II:16 via dibenzylether crosslinker; not fully specified (N-terminus, C-terminus)
Kd [8]: 2700 nM
ERK activation levels (ERK phosphorylation, Western blot, H358 cells) [9]: < 1 µM
Kd [10]: 300 nM
EC50 (read off the curve) [11]: 200 nM

Next, values leading:

Kd [3]: 17.9 µM
Kd [4]: 2 µM
Kd [5]: 1900 nM
Kd [6]: 13.4 µM
Kd [7]: 16.1 µM
B2: FITC-CHD^Sos-5 (designed binder)
chain 1: Ac-WIGRLCTEI[hArg]RLRNGN-NH2
chain 2: {FITC}-[βAla]LAWRLRELERELARLC-NH2
modifications: linker I:6-II:17 via dibenzylether crosslinker

Kd [4]: 32 µM
Kd [12]: 32.2 µM
B4: FITC-CHD^Sos-1 (designed binder)
chain 1: Ac-FIGRLCTEILKLREGN-NH2
chain 2: {FITC}-[βAla]LAWRLRELERELARLC
modifications: linker I:6-II:17 via dibenzylether crosslinker; not fully specified (C-terminus)
